# In IntAct's records for PubMed 23164639:
# B1: Peroxiredoxin-6 (Mus musculus), O08709 (parent)
# chain: MPGGLLLGDEAPNFEANTTIGRIRFHDFLGDSWGILFSHPRDFTPVCTTELGRAAKLAPEFAKRNVKLIALSIDSVEDHLAWSKDINAYNGETPTEKLPFPIIDDKGRDLAILLGMLDPVEKDDNNMPVTARVVFIFGPDKKLKLSILYPATTGRNFDEILRVVDSLQLTGTKPVATPVDWKKGESVMVVPTLSEEEAKQCFPKGVFTKELPSGKKYLRYTPQP
# Variants of: B1
# Conditions: with gstp1_mouse Gstp1, P19157
# Sequence of gstp1_mouse Gstp1, P19157 (P19157 whole entry): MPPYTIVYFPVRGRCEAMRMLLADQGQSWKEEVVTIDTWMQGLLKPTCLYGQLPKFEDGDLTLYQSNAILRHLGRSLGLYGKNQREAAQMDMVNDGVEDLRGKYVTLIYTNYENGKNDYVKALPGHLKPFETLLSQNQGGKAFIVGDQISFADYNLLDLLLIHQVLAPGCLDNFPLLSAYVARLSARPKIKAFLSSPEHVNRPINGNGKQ
row,effect of a mutation on the interaction,Variant
1,disrupting interaction,MPGGLLLGDEAPNFEANTTIGRIRFHDFLGDSWGILFSHPRDFTPVSTTELGRAAKLAPEFAKRNVKLIALSIDSVEDHLAWSKDINAYNGETPTEKLPFPIIDDKGRDLAILLGMLDPVEKDDNNMPVTARVVFIFGPDKKLKLSILYPATTGRNFDEILRVVDSLQLTGTKPVATPVDWKKGESVMVVPTLSEEEAKQCFPKGVFTKELPSGKKYLRYTPQP [C47S]
